The results in this text go back to the nanobody polyreactivity screen of Harvey et al. (2022).

This data set in a line: yeast display, Sf9 membrane polyspecificity reagent, FACS + sequencing; frameworks hold sequencing errors. The gist of the method: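 Synthetic nanobody libraries on Saccharomyces cerevisiae BJ5465 were galactose-induced for 36–48 hours, stained 1 hour at 4 °C with 10% biotinylated, detergent-solubilized Sf9 membrane reagent and enriched on streptavidin microbeads. FACS then separated cells into low and high (top ~1%) gates by anti-HA (expression) and streptavidin (reagent binding) fluorescence. Genes were colony-PCR amplified, MiSeq 2 × 250 sequenced and CDR-length filtered. A clone's polyreactivity label is that of its gate of origin.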
For “QVQLVESGGRIVQAGGSLRLSCAASGRTFPINAMGWYRQAPGKERELVASIRWTDGTTYYADSVKGRFTISRDNAKNTVYLQMNSLKPEDTAVYYCAADAEGSASKYDYWGQGTQVTVSS”, the “polyreactivity (PSR sort gate)” value is “low polyreactivity”.
The same measure for “QVQLVESGGGLVQAGGSLRLSCAASGRIFSRYGMGWYRQAPGKERELVAGISSSGGSTYYADSVKGRFTISRDNAKNTVYLQMNSLKPEDTAVYYCAADDGFYGPDLDYRGQGTQVTVSS”: “low polyreactivity”.
The same measure for “QVQLVESGGGLVQAGGSLRLSCAASGRIFGGNAMGWYRKAPGTEREVVAAISWIGGTTYYADSVKGRFTISRDNAKNTVYLQMISLKPEDTAVYYCAAYRYRPHDHRYYRYDYWGQGTQVTVSS”: “high polyreactivity”.
The same measure for “QVQLVESGGGLVQAGGSLRLSCAASGRTFYPNAMGWSRQAPGQERAFVARISDSGGSTYYADSVKGRFTISRDNAKNTVYLQMNSLKPEDNAVYYCAADYGDPRVNEYDYWGQGTQVTVSS”: “low polyreactivity”; for “QVQLVESGGGLVQAGGSLRLSCAASGRTFRFYAMGWSRQAPGKEREMVAAISYSGGSTYYADSVKGRFTISRDNAKNTVYLQMNSLKPEDTAVYYCAAPYYRSTTSYDYWGQGTQVTVSS”: “high polyreactivity”; for “QVQLVESGGGLVQAGGSLRLSCAASGRTFKKYAMGWYRQAPGTERELVAAFTGSGGSTYYADSVKGRFTISRDNAKNTVYLKMNSLKPEDTAVYYCAAYAYGVWHSQDGGNYWGQGTQVTVSS”: “low polyreactivity”.
For “QVQLVESGRGLVQAGGSLRLSCAASGRTFVYYAMGWYRQAPGKERELVAAISRSGSTYYADSVKGRFTISRDNAKNTVYLQMNSLKPEDTAVYYCARPGGPDRTSSPYPYPYGYWGQGTQVTVSS”, the “polyreactivity (PSR sort gate)” value is reported as “low polyreactivity”.
Take “QVQLVESGGGLVQAGGSLRLSCAASGRIFDGYAMGWYRQAPGQERELVAAISSRGGRTYYADSVKGRFTISRDHAKNTVYLQMNSLKPEDTAVYYCAADDPYGEGDYWGQGTQVTVSS”: the “polyreactivity (PSR sort gate)” value is given as “low polyreactivity”.
With “QVQLVESGGGLVQAGGSLRLSCAASGSIFSINAMGWYRQAPGKERELVAAINGSGGNTYYADSVKGRFTISRDNAKNTVYLQMNSLKPEDTAVYYCAAEGYSYWSFDELDYWGQGTQVTVSS” the entry was “low polyreactivity”; with “QVQLVESGGGLVQAGGSLRLSCAASGRIFIYAMGWYRQAPGKERELVAAISWSGGSTYYADSVKGRFTISRDNAKNTVYLQMNSLKPEDTAVYYCAADYEGWGYDYRGDYWGQGSQVTVSS”, “low polyreactivity”; with “QVQLVESGGGLVQAGGSLRLSCAASGIIFRFYAMGWYRQAPGKERELVARIRSRGGSTYYADSVKGRFTISRDNAKNTVYLQMNSLKPEDTAVYYCAAGAGYPYYWGQGTQVTVSS”, “high polyreactivity”.
On to “QVQHVESGGGLVQAGGSLRLSCAASGRTFGQNAMGWYRQAPGKERELVASIRSGGITDYADSVKGRFTISRDNAKNTVYLHMNSLKPEDTAVYYCNAEGVWWSTRYDSWGQGTQVTVSA”, for which the “polyreactivity (PSR sort gate)” value is recorded as “low polyreactivity”.
The same measure for “QDQLVESGGGLVQAGGSLRLSCAASGFTFVINDMGWYRQAPGKEREMVADITSGGDTYYADSVKGRFTISRDNAKNTVDLQMNSLKPEDTAVYYCAADIYPDWIYLLYGYWGQGTQVSVSS”: “low polyreactivity”; for “QVQLVESGGGLVQAGGSLRLSCAASGLTFDYYAMGWYRQAPGKERELVAAISIGGSTNYADSVKGRFTISRDNAKNNVYLQMNSLKPEDTAVYYCAAQGYLRLRTHFNYWGQGTQVTVSS”: “low polyreactivity”.
Turning to “QVQLVESGGGLVQSGVSLRLSCAASGITFYSIAIGWYRPATGKEMELVAANTRRGGSKLNADSVKGRFTNSRDNSKNTVYLQMNSLKPEDTAVYFCAADVPWWSYSDDYWGQGTKVTVSS”, the “polyreactivity (PSR sort gate)” value is listed as “high polyreactivity”.
With “QVQLVESGGGLVQAGGSLRLSCAASGSTFRWNAMGWYRQAPGKERELVATITWGGGSTYYADSVKGRFTISRDNAKNTVYLQMNSLKPEDTAVYYCARRKRARYSYYQYNYWGQGTQVTVSS” the entry was “high polyreactivity”.
The same measure for “QVQLVESGGGVVQAGGSLRLSCAASGRTFPLYAMGWYRQAPGKERELVAAIRTGGSTNYADSVKGRFTISRDNAKNTVYLQMNSLKPEDTAVYYCAAVQRTDRSAHYSWGQGTQVTVSS”: “low polyreactivity”; for “QVQLVESGGGLVQAGGSLRLSCAASGFTFGYYAMGWYRQAPGKERELVAAISWSGSSTYYSDSVKGRFTISRDNAKNTVYLQMNSLKPEATAVYYCAAELGDAYYYWGQGTQVTVSS”: “high polyreactivity”.
With “QVQLVESGGGLVQAGGSLRLSCAGSGRIFARNAMGWYRQAPGKARELVAGITWSGSSTYYADSVKGRFTISRDNAKNTVYLQMNRLKPEDTAVYYCAVDYYVGSLRIHHDYWGQGTQVTVSS” the entry was “low polyreactivity”; with “QVQLVESGGGLVQAGGSLRLSCAASGFTFRYNAMGWYRQAPGKERELVAAITYRGGSTYYADSVKGRFTISRDNAKNTVYLQMNSLKPEDTAVYYCAAVGDLWGYYWGQGSQVTVSS”, “low polyreactivity”.
“QVQLGESGGGLVQAGGSLRLSCAASGLTFDPNAMGWYRQAPGKERELVATITQTDGSTYYADSVKGRFTISRDNAKNTVYLQMNSLKPEDTAVYYCAVDVDEPRYRRPFHHDYWGQGTQVTVSS”: the “polyreactivity (PSR sort gate)” value is listed as “low polyreactivity”.
With “QVQLVDSGGGLVQAGGSLRLSCAASGFIFAPYAMGWYRQAPGKERELVAAISSSGGSTYYADSVKGRFTISRDNAKNTVYLQMNSLKPEDTAVYYCAVDYLTLTYEYYYWGQGTQVTVSS” the entry was “low polyreactivity”; with “QVQLVESGGGLVQAGGSLRLSCAASGRIFHNYAMGWYRQAPGKERELVAGISSRGGSTYYADSVKGRFTISRDNAKNTVYLQMNSLKPEDTAVYYCAKDKSPYGYATNQYRKYYYWGQGTQVTVSS”, “low polyreactivity”.
As for “QVQLVESGGGLVQAGGSLRLSCAASGGIFAWYAMGWYRQAPGKERELVAAIDHSGGSTYYADSVKGRFTISRDNAKNTVYLQMNSLKPEDTAVYYCNAGYYGYWEKYDYWGQGTQVTVSS”, the “polyreactivity (PSR sort gate)” value was “low polyreactivity”.
The same measure for “QVQLVESGGGLVQAGGSLRLSCAASGRISRIYAMGWYRQAPGKERELVAAIRGRGGSTYYADSVKGRFTISRDNAKNTVYLQMNSLKPEVTAVYYCAADGWARYEYWGQGTQVTVSS”: “high polyreactivity”.
With “QVQLVESGGGLVQAGGSLRVSCAASGSTFGYYAMGWYREAPGKEREFVAAINYGDGNTYYADSVKGRFTISRDNAKNTVYLQMNRLKPEDTAVYYCATYYWAPTGAHGGYGYWVQGTQVTVSS” the entry was “low polyreactivity”; with “QVHLVESGGGLVQAGGSLRLSCAPSGFIFDYYTMGWYRQAPGKESELVAAITWSGGRTNYADSVKGRFTISRDNAKYTVYLQMNSLKPEDTAVYYCNARRRARGAPYYLYGYSGQGTQVTVSS”, “low polyreactivity”.
The same measure for “QVQLVESGGGLVQAGGSLRLSCAASGRTFRRYVMGWYRQAPGKERELVASITRGTGTDYADSVKGRFTISRDNAKNTVYLQMNSLKPEDTAVYYCNAEVKGFFYDYDYWGQGTQVTVSS”: “low polyreactivity”; for “QVQLVESGGGLVQAGGSLRLSCAASGSIFGIYAMGWYRQAPGKERELVAAISGSGGDTYYADSVKGRFTISRDNAKNTVYLQMNSLKPEDTAVYYCAATTGAAYPFDYWGQGTQVTVSS”: “low polyreactivity”.
As to “QVQLVESVGGLVQAGGSLRLSCAASGSIFAGYAMGWYRQAPGKERELVAAISRRGGRTYYADSVKGRFTISRDIAKNTVYLQMNSLKPEVTAVYYCNRDYRRSTGSPEYDYWGQGTQVTVSS”, the “polyreactivity (PSR sort gate)” value is given as “high polyreactivity”.
Turning to “QVQLVESGGGLVQAGGSLRLSCAASGRTFNAYTLGWYTQAPGTERELVAAITSSGGNTYNADSVKGRFTISRDNAKNTVYLQMNSLKPEETAVYYCNTVYLYGTHDYWGQGTQVTVSS”, the “polyreactivity (PSR sort gate)” value is on record as “low polyreactivity”.
Regarding “QVQLVESGGGLVQAGGSLRLSFAASGSIFFGNAKGCYRQAPVKERELVAAITRRGGSTYYADSVKGRFTISRDNAKNPVYLQMYSLKAEDTAVYYCNGVSKRYGYGYWGQGTQVTVSS”, the “polyreactivity (PSR sort gate)” value is given as “high polyreactivity”.
For “QVQLVESGGGLVQAGGSLRLSCAASGRIFEYAMGWYRQAPGKERELVAGITRSSSTNYADSVKGRFTISRDNAKNTVYLQKNSLKPEDTAVYYCNAESRSWYLYHYDYWGQGTQVTVSS”, the “polyreactivity (PSR sort gate)” value is given as “low polyreactivity”.
The same measure for “QVQLVESGGGLVQAGGSLRLSCAASGFTFKGYTMGWYRQAPGKERELVAAISRSGGRTYYADSVKGRFTISRDNAKNTVYLQMNSLKPEDTAVYYCAAVIIGGHDYWGQGTQVTVSS”: “high polyreactivity”; for “QVQLVESGGGLVQAGGSLRLSCAASGRTFALYTMGWYRQAPGKVRELVAAINWSGTSTYYADSVKGRFTISRDNAKNTVYLQMNSLKPEDTAVYYCNRDPRKYGKLDYWGQGTQVTVSS”: “low polyreactivity”.
The same measure for “QVQLVESGGGLVQAGGSLRLSCAASGITFDRYALGWYRPAPGKEREFVAAISWRGGSTYYADSVKGRFTISRDNAKNTVYLQMNSLKPEDTAVYYCAVGYYDHDYWYEYWGQGTQVTVSS”: “high polyreactivity”; for “QVQLVESGGGLVQAGGSLRISCAASGLTFGKYAMGWYRQEPGKERELVAAISWSVTSTYYADSVKGRFTISRDNAKNTVYLQMNSLKPEDTAVYYCAAEIIKLAYRVAYYYWGQGTQVTVSS”: “high polyreactivity”; for “QVQLVESGGGLVQAGGSLRLSCAASGSIFYENAMGWYRQAPGKERELVAAIRDSGGSTYYADSVKGRFTISRDNAKNTVYLQMNSLKPEDTAVYYCNAVPVYYDYDYWGQGTQVTVSS”: “low polyreactivity”.
With “QVQLVESGGGLVQAGGSLRLSCAASGRTVVNAMGWYRQAPGKERELVAAISSNGGRTYYADSVKGRFTISRDNAKNTVYLQMTSLKPEDTAVYYCAKGLGIRPTYYYWGQGTKVTVSS”, the “polyreactivity (PSR sort gate)” value is given as “high polyreactivity”.
With “QVQLVESGGGLVQAGGSLRLSCAASGSISVWYVMGWYRQAPGKERELVAAITRSGGSTFYADSVKGRLTISRDNAKNTVYLQMNSLKPEDTAVYYCAADVGVAWGYGYWGQGTQVTVSS”, the “polyreactivity (PSR sort gate)” value was “low polyreactivity”.
The same measure for “QVQLVESGGGLVQAGGSLRLSCAASGRTFGYNAMGWYRQAPGKEREFVAAITWSGGRTYYADSVKGRFTISRDNAKNTVYLQMISLKPEDTAVYYCAAVLGRPLHGVAYGYWGQGTQVTVSS”: “low polyreactivity”.
